{"source": "patent US6107076A", "about": "“Soluble mammalian adenylyl cyclase and uses therefor” (Board of Regents, The University of Texas System, priority 1996, dated 2000)", "key": {"[1]": {"molecular_target": "T1, soluble adenylyl cyclase chimera IC1 IIC2 -L3 (C1a of type I adenylyl cyclase, residues 271-484, linked to C2a of type II adenylyl cyclase, residues 821-1090) (UniProt P19754+P26769)", "T1 construct": "IC1a includes residues 271-484 of type I adenylyl cyclase; IIC2a includes residues 821-1090 of type II adenylyl cyclase; made in house; host or cells: E. coli TP2000 (150,000 g supernatant)", "T1 sequence (P19754+P26769 fused, change not shown)": "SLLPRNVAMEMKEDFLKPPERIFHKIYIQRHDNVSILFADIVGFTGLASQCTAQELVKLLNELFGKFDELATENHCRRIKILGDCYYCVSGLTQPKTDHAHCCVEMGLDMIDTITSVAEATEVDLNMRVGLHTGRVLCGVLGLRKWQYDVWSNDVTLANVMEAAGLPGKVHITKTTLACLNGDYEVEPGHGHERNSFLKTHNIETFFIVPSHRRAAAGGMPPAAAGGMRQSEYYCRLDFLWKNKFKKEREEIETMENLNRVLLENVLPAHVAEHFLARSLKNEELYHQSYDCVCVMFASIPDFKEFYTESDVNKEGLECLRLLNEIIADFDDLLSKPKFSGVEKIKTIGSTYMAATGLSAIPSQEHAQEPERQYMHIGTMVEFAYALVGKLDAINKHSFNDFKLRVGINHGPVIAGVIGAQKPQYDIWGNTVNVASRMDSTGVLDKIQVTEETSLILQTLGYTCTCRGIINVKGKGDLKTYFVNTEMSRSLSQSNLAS", "assay": "Adenylyl cyclase activity of 150,000 g supernatant from E. coli expressing IC1 IIC2 -L3", "type": "biochemical, mammalian", "protocol": "FIG. 2--Enzyme activity of chimeras.\nData shown are representative of at least two studies.\nE. coli that contained the desired plasmids were grown in LB plus 50 μM carbenicillin to OD600 =0.3. Isopropyl-β-D-thiogalactopyranoside(100 μM) and chloramphenicol (0.5 μM) were added to induce expression of adenylyl cyclase for 12 hours. Bacteria were then collected by centrifugation at 4° C. and lysed by incubation at 4° C. for 30 min in 20 mM Tris-HCl (pH 8.0), 1 mM EDTA, 2 mM dithiothreitol (DTT) and protease inhibitors with 0.1 mg/ml of lysozyme. The suspension was sonicated briefly (3×20 sec) during incubation. The lysate was centrifuged (4° C.) at 150,000×g for 30 min, and the supernatant was recovered.\nThe inventors examined adenylyl cyclase activity in vitro in 150,000 g supernatant fractions from E. coli […] transformed with the various constructs. […] Ca^2+ -calmodulin had no detectable effect on activity, and lysates from cells expressing either IC1 or IIC2 had little adenylyl cyclase activity.\nHowever, the maximal stimulatory effect of the G protein α subunit exceeded that of forskolin (FIG. 4). […] Synergistic activation of the enzyme was thus not due to alternation of apparent substrate affinity."}, "[2]": {"molecular_target": "IC1 (C1a domain of type I adenylyl cyclase, construct of Example 5) (Bos taurus (Bovine))", "assay": "estimated from the adenylyl cyclase activity of 0.1 µM IC1 titrated with IIC2 without activator (FIG. 13A, model of FIG. 15); no direct binding assay"}, "[3]": {"molecular_target": "IC1 (C1a domain of type I adenylyl cyclase, construct of Example 5) (Bos taurus (Bovine))"}, "[4]": {"molecular_target": "IC1 (C1a domain of type I adenylyl cyclase, construct of Example 5) (Bos taurus (Bovine))", "remark": "listed apart in the source"}, "[5]": {"molecular_target": "IC1 IIC2 -L3"}, "[6]": {"molecular_target": "IC1 IIC2 -L5"}, "[7]": {"molecular_target": "IC1 IIC2 -L1"}, "[8]": {"molecular_target": "mixture of IC1 and IIC2 (non-covalent complex of the C1 domain of type I and the C2 domain of type II adenylyl cyclase) (Bos taurus (Bovine); Rattus norvegicus (Rat))"}, "[9]": {"molecular_target": "mixture of IC1 and IIC2 (non-covalent complex of the C1 domain of type I and the C2 domain of type II adenylyl cyclase) (Bos taurus (Bovine); Rattus norvegicus (Rat))", "assay": "equilibrium constant of the model of FIG. 15, derived from the EC50 of activated Gsα for adenylyl cyclase activity of mixed IC1 and IIC2; no direct binding assay"}, "[10]": {"molecular_target": "IC1 IIC2 -L3", "remark": "listed apart in the source"}}, "data": [{"compound": "C=CC1(C)CC(=O)C2C3(C)CCCC(C)(C)C3C(O)C(OC(C)=O)C2(C)O1", "note": "(stereo not drawn) [1,9-dideoxyforskolin]", "values": [{"measurement": "stimulation of adenylyl cyclase activity", "setting": "[1]; 150,000 g supernatant, FIG. 3", "result": "failed to stimulate"}]}, {"compound": "Nc1ncnc2c1ncn2[C@H]1C[C@H](OP(=O)(O)O)[C@@H](CO)O1", "note": "[2'-deoxy-3'-AMP]", "values": [{"measurement": "inhibition of adenylyl cyclase activity (P-site inhibitor), mode", "setting": "[1]; forskolin-activated enzyme, FIG. 7", "result": "inhibited noncompetitively"}]}, {"compound": "IIC2 (C2 domain of type II adenylyl cyclase, construct of Example 5) (enzyme)", "values": [{"measurement": "Kd", "setting": "[2]", "result": "> 10000", "unit": "nM"}, {"measurement": "apparent EC50 for IIC2, adenylyl cyclase activity with 8 nM IC1, 50 µM FSK and 10 µM GTP[γS]-Gsα", "setting": "[3]", "result": 15, "unit": "nM"}, {"measurement": "apparent EC50 for IIC2, adenylyl cyclase activity with 8 nM IC1 and 50 µM FSK", "setting": "[3]", "result": 190, "unit": "nM"}, {"measurement": "EC50 for IIC2, adenylyl cyclase activity with IC1 in the absence of activators", "setting": "[4]", "result": "> 10000", "unit": "nM"}]}, {"compound": "wild-type alpha subunit of the G protein (Gsα)", "values": [{"measurement": "adenylyl cyclase activity of 150,000 g supernatant", "setting": "[5]", "result": 50, "unit": "fold"}, {"measurement": "adenylyl cyclase activity of 150,000 g supernatant", "setting": "[6]", "result": 50, "unit": "fold"}, {"measurement": "adenylyl cyclase activity of 150,000 g supernatant", "setting": "[7]", "result": 50, "unit": "fold"}, {"measurement": "adenylyl cyclase activity of purified mixed fragments (8 nM IC1, 6.6 µM IIC2) against the concentration of activated Gsα", "setting": "[8]", "result": "> 100", "unit": "fold"}, {"measurement": "K4", "setting": "[9]", "result": 0.4, "unit": "µM"}, {"measurement": "EC50 for activation of adenylyl cyclase activity", "setting": "[10]", "result": 1000, "unit": "nM"}]}]}
